In patent US20020068323A1 (Amgen, published 2002):

Key:
[1] = target: T1, TSLP receptors constitutively expressed on NAG8/7 cells; test: displacement binding assay with ^125I-TSLP and unlabeled TSLP on NAG8/7 cells, Scatchard transformation
T1 construct: also called single class of receptors
Experimental: (§1) The binding of TSLP to 293 cells transfected with murine IL-7Rα and murine TSLPR polypeptide, or murine IL-7Rα alone, was analyzed in a displacement binding assay. Following two washes, 1×10⁶ transfected 293 cells were incubated in a constant amount of ¹²⁵I-labeled TSLP (approximately 20,000 cpm) and varying amounts of unlabeled TSLP. Following a 3 hour incubation, treated cells were separated from the medium by centrifugation in olive oil and N-butylphthalate. Cell-bound radioactivity was measured using a gamma counter.
(§2) Analysis of binding data by Scatchard transformation was performed using the LIGAND computer program (Munson and Rodbard, 1980, Anal. Biochem. 107:220-39). […] Due to the very low binding activity of TSLP for cells expressing […], it was not possible to determine the Kd for these cells. Displacement binding assays were also performed using NAG8/7 cells, which constitutively express TSLP receptors and proliferate in response to TSLP (Friend et al., supra; Levin et al., supra). In these displacement binding assays, 5×10⁶ NAG8/7 cells were incubated in a constant amount of ¹²⁵I-labeled TSLP (approximately 180,000 cpm) and varying amounts of unlabeled TSLP. The remainder of the assay was performed as described herein.

murine IL-7Rα = target: T2, murine IL-7Rα (murine, UniProt P16872 21-459); test: affinity labeling, DSS cross-linking, transfected 293 cells, SDS-PAGE
T2 construct: whole, on cells; Expressed alone on transiently transfected 293 cells; also called murine IL-7Rα alone
T2 sequence (looked up): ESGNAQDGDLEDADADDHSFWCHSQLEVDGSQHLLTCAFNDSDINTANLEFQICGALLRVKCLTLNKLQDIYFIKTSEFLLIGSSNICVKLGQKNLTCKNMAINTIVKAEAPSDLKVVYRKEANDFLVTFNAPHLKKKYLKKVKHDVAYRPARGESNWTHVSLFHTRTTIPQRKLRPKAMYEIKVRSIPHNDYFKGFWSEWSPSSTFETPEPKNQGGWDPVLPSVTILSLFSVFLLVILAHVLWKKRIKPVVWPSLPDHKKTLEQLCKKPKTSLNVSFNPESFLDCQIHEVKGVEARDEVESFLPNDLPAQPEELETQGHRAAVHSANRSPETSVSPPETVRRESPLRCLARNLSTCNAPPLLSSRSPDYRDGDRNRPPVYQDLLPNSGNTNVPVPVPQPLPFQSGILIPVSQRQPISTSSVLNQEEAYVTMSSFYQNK
Experimental: The binding of TSLP to TSLPR polypeptide in the presence of IL-7Rα was examined in affinity labeling assays. Affinity labeling assays were performed by adding 1-5 nM of ¹²⁵I-labeled TSLP to 5×10⁶ 293 cells transfected with expression constructs for murine IL-7Rα, murine TSLPR polypeptide, murine IL-7Rα and murine TSLPR polypeptide, or human IL-7Rα and murine TSLPR polypeptide. Iodinated TSLP was prepared by adding IODO-GEN (Pierce, Rockford, Ill.) and 2 mCi¹²⁵I to 1 μg of TSLP. A specific activity of approximately 200-300 μCi/μg was obtained by this method. Prior to affinity labeling, 293 cells were transiently transfected using the calcium phosphate method (Eppendorf-5 Prime, Boulder, Colo.). Following a 2 hour incubation with ¹²⁵I-TSLP, cells were cross-linked with 0.1 mg/ml disuccinimidyl suberate (Pierce), lysed in lysis buffer, and the lysates resolved by SDS-PAGE.

[2] = target: T3, heterodimer of murine IL-7Rα and murine TSLPR polypeptide (murine, UniProt P16872 21-459); test: displacement binding assay on transfected 293 cells, Scatchard transformation (LIGAND program)
T3 construct: whole, on cells; Both chains co-expressed on transiently transfected 293 cells; also called IL-7Rα/TSLPR polypeptide heterodimer; cells expressing TSLPR polypeptide and IL-7Rα
T3 sequence (P16872 whole entry, looked up): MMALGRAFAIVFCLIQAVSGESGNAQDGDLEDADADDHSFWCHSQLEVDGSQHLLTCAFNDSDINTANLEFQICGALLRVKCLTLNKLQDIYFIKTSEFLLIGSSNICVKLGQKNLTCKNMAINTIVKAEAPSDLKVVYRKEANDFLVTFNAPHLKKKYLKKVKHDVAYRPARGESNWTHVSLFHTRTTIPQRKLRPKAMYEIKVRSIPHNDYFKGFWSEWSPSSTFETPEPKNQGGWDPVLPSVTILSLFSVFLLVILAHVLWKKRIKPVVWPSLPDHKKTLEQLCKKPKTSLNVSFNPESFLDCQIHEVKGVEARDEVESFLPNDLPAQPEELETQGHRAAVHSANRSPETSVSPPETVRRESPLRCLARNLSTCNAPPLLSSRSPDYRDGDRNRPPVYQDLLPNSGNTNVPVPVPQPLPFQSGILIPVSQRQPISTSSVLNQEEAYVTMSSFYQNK
T3 sequence (Q8CII9 whole entry, looked up): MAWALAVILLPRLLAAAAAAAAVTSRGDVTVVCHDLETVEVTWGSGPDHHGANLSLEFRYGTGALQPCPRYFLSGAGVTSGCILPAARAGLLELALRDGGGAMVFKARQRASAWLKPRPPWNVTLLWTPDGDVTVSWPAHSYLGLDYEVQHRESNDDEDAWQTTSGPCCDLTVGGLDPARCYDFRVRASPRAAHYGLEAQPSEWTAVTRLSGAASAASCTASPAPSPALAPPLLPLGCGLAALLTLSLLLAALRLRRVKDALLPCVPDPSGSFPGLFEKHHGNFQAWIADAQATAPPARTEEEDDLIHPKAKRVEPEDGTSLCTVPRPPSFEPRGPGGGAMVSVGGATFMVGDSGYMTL
Experimental: as §1, §2

Kd [1]: ~2.2 nM
Kd [2]: ~13 nM
B1: Thymic stromal lymphopoietin (TSLP) (ligand, UniProt Q9JIE6 20-140, looked up)
chain: YNFSNCNFTSITKIYCNIIFHDLTGDLKGAKFEQIEDCESKPACLLKIEYYTLNPIPGCPSLPDKTFARRTREALNDHCPGYPETERNDGTQEMAQEVQNICLNQTSQILRLWYSFMQSPE
binding result (murine IL-7Rα): no binding (tested: 1-5 nM of ^125I-labeled TSLP)
